Series [1] concerns the target T1, Cre recombinase monomer with Q311R mutation.
T1 chain: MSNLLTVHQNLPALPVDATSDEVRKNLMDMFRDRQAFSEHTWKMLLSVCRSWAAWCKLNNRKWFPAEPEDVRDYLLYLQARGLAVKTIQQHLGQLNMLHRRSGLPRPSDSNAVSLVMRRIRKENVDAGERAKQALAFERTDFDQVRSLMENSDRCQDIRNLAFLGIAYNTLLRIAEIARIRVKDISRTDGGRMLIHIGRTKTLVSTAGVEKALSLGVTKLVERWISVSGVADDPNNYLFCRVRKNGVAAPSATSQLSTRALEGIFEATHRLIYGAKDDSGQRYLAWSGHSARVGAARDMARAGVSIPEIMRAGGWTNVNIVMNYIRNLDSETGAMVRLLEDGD

The target in series [2] is T2, Cre recombinase monomer with R292Q mutation.
T2 chain: T1 chain with R292Q, R311Q

For series [3], the target named is T3, Cre recombinase monomer with Y324R mutation.
T3 chain: T1 chain with R311Q, Y324R

The target of series [4] is T4, Cre recombinase monomer with Y324T mutation.
T4 chain: T1 chain with R311Q, Y324T

Series [5] deals with T5, Cre recombinase monomer with Y324N mutation.
T5 chain: T1 chain with R311Q, Y324N

Series [6] concerns the target T6, Cre recombinase monomer with W315N mutation.
T6 chain: T1 chain with R311Q, W315N

The target of series [7] is T7, Cre recombinase monomer with R292A mutation.
T7 chain: T1 chain with R292A, R311Q

Series [8] deals with T8, Cre recombinase monomer with W315L mutation.
T8 chain: T1 chain with R311Q, W315L

The target of series [9] is T9, Cre recombinase monomer with W315C mutation.
T9 chain: T1 chain with R311Q, W315C

Series [10] concerns the target T10, Cre recombinase monomer with Y324S mutation.
T10 chain: T1 chain with R311Q, Y324S

In series [11] the target is T11, Cre recombinase monomer with Y324A mutation.
T11 chain: T1 chain with R311Q, Y324A

Series [12] concerns the target T12, Cre recombinase monomer with Y324I mutation.
T12 chain: T1 chain with R311Q, Y324I

Series [13] addresses T13, Cre recombinase monomer with K201Q mutation.
T13 chain: T1 chain with K201Q, R311Q

Substitutions are numbered along the chain they refer to. In names and notes the source's numbering stands.

B1: Cre recombinase monomer with K201C mutation (protein)
chain: T1 chain with K201C, R311Q
In the case of B1, the “Median dimer activity (recombination on loxP)” value (from here on “Median dimer activity”) in [1] was found to be 93%; in [2], 52%.

B2: Cre recombinase monomer with W315C mutation (protein)
chain: T1 chain with R311Q, W315C
On to B2, for which the “Median dimer activity” value was found to be 31% in [3], 36% in [4] and 38% in [5].

B3: Cre recombinase monomer with Q133H mutation (protein)
chain: T1 chain with Q133H, R311Q
As for B3, the figures for the “Median dimer activity” value in series [1], in series [6] and in series [7] were 96%, 33% and 48%, respectively.

B4: Cre recombinase monomer with H289E mutation (protein)
chain: T1 chain with H289E, R311Q
For B4, the “Median dimer activity” value was 94% in [1] and 33% in series [8].

B5: Cre recombinase monomer with H289W mutation (protein)
chain: T1 chain with H289W, R311Q
For B5, the “Median dimer activity” value was 95% in series [1] and 87% in series [9].

B6: Cre recombinase monomer with W315E mutation (protein)
chain: T1 chain with R311Q, W315E
B6: in [10], the “Median dimer activity” value worked out at 35%.

B7: Cre recombinase monomer with K201N mutation (protein)
chain: T1 chain with K201N, R311Q
B7: the “Median dimer activity” value in series [1] amounted to 95%; in [11] it was 26%.

B8: Cre recombinase monomer with R292E mutation (protein)
chain: T1 chain with R292E, R311Q
As to B8, the figures for the “Median dimer activity” value in series [1] and in series [12] were 50% and 70%, respectively.

B9: Cre recombinase monomer with E176W mutation (protein)
chain: T1 chain with E176W, R311Q
B9: the “Median dimer activity” value in [1] turned out to be 90%; in series [13], 28%.
